Measured values as given in EP4667494A2 (Fundación Instituto de Investigación Sanitaria Fundación …, dated 2025).

Each binder was assayed against T1, CD79b (UniProt P40259 29-229, limits assumed) (assay: flow cytometry on NHL cell lines Ramos and Daudi).
T1 construct: whole, on cells; Endogenous CD79b on human lymphoma cell lines
T1 sequence (looked up): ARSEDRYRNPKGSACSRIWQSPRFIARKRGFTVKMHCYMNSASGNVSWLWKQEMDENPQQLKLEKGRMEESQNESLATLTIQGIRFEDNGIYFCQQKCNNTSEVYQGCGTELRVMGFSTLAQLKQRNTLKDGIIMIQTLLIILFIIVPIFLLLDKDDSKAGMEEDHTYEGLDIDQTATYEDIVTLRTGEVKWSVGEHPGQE

Binder | binding result
CARLY1 monoclonal murine antibody against CD79b (antibody, V domains shown, Murine monoclonal from a hybridoma, made by an external service; The variable domains are tied to the name CARLY 1 in the definition section) VH: QVQLQQPGAELVRPGASVKLSCKASGYTFTSYWMNWVKQRPGQGLEWIGMIDPSDSETHYNQMFRDKATLTVDKPSNTAYMQLSRLTSEDSAVYYCARALGYWGQGTSVTVSS VL: not shown | binds
CARLY2 monoclonal murine antibody against CD79b (antibody, V domains shown, Murine monoclonal from a hybridoma; it was detected with anti-mouse IgG-Alexa647 in confocal microscopy) VH: QVQLQQPGAELVRPGASVKLSCKASGYTFTTYWMNWVKQRPGQGLEWIGMIDPSDSETHYNQMFKDKATLTVDKSSTTAYMQLSSLTSEDSAVYYCARTLSYWGQGTLVTVSA VL: not shown | binds
CARLY3 monoclonal murine antibody against CD79b (antibody, V domains shown, Murine monoclonal from a hybridoma; it was detected with anti-mouse IgG-Alexa647 in confocal microscopy) VH: QVQLQQPGAELVRPGASLKLSCKTSGYTFTDYWMNWVKQRPGQGLEWIGMIDPSDSETHYNQMFKDKATLTVDKSSSTAYMQLSSLTSEDSAVYYCTRNLNYWGQGTTLTVSS VL: not shown | binds
